Assay [1] has as its target human μ opioid receptor-Renilla luciferase II (human) (UniProt P35372).
The target of assay [2] is endogenous μ opioid receptor of rat locus coeruleus neurones (rat (endogenous in locus coeruleus neurones)) (UniProt P33535).
In assay [3] the target is HA-rat μ opioid receptor (rat) (UniProt P33535).
For assay [4], the target named is human μ opioid receptor-Renilla luciferase II (human) (UniProt P35372). This is another data set of the same source.
In assay [5] the target is HA-rat μ opioid receptor (rat) (UniProt P33535). The source holds these as a separate data set.

UniProt P35372, sequence (P35372 whole entry): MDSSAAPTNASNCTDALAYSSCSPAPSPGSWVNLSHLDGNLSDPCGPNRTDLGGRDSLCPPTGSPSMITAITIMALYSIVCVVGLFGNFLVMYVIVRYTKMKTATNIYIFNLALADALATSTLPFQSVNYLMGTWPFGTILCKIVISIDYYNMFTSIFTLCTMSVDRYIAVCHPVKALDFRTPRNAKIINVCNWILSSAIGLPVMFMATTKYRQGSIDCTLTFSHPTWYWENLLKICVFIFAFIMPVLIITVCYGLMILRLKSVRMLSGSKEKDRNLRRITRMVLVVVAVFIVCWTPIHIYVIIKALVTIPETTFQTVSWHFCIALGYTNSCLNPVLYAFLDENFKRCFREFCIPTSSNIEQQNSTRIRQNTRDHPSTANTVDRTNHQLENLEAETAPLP

With “DAMGO ([D-Ala^2, N-MePhe^4, Gly-ol]-enkephalin) (peptide)”, in assay [1], the β-arrestin 2 recruitment BRET (μ opioid receptor-RlucII / β-arrestin 2-GFP10) in HEK293T cells, log EC50 (M) is -5.7 log EC50 (M). In addition, in assay [2], the opioid-evoked GIRK current in rat locus coeruleus neurones (whole-cell patch clamp), log EC50 (M) was -7.29 log EC50 (M). In assay [3], the G protein activation BRET (Gαi1-RlucII / GFP10-Gγ2) in HEK293T cells, log EC50 (M) was -6.48 log EC50 (M) and the cell surface receptor loss (ELISA of HA-tagged receptor, 1 h agonist) in HEK293T cells, log EC50 (M) is -6.14 log EC50 (M). This substance returned a KA (equilibrium dissociation constant) by Furchgott's method from β-arrestin 2 recruitment BRET curves with and without β-FNA, whole cells in assay [4] of 1580 nM. The substance further had a KA (equilibrium dissociation constant) by Furchgott's method from G protein activation BRET curves with and without β-FNA, whole cells in assay [5] of 5.6 µM.

The values are drawn from paper PMC10952505.
